Results published in patent US7666420.

Experiments:
CD14 (human) = CD14 (human) (UniProt P08571); assay: cell-based or functional assay
[1] = target: human TLR4 (Toll-like receptor 4) (human) (UniProt O00206); assay: cell-based or functional assay
UniProt O00206, sequence (O00206 24-839): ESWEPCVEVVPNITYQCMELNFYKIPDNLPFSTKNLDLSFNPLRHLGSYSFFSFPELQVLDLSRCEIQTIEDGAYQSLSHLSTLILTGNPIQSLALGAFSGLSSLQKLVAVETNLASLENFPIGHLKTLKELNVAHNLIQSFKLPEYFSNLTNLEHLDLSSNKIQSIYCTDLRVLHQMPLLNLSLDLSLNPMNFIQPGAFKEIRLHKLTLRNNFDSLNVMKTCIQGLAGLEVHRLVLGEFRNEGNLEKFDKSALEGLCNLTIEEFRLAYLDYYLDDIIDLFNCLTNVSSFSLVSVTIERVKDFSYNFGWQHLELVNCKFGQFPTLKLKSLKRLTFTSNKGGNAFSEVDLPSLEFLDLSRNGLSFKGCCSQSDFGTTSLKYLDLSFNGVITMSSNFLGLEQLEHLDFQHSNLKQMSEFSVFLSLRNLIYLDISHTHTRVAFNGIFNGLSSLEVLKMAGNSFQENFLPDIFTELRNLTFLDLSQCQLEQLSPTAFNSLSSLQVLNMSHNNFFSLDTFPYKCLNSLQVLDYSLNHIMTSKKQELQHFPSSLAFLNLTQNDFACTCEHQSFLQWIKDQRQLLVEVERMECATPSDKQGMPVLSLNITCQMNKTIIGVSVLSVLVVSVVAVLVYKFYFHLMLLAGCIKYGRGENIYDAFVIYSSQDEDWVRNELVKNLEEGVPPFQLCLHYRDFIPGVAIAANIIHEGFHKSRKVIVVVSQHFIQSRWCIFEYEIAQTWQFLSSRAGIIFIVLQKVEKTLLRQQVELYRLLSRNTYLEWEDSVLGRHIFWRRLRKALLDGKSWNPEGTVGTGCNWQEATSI

UniProt P08571, sequence (P08571 20-345): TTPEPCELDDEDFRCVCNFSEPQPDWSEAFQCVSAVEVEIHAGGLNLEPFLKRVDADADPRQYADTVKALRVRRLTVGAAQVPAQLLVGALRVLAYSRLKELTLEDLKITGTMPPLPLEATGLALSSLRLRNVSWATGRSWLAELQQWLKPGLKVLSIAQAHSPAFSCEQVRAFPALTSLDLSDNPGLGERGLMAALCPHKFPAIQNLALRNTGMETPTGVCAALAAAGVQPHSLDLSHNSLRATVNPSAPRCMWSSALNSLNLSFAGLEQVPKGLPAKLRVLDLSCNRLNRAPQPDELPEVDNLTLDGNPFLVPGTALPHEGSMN

| Substance | inhibition of TNF-alpha secretion by human PBMCs stimulated with Env-SU, cells preincubated with anti-CD14 antibody (CD14 (human)) | inhibition of TNF-alpha secretion by human PBMCs stimulated with Env-SU, cells preincubated with anti-TLR4 antibody [1] |
| --- | --- | --- |
| anti-CD14 neutralizing antibody (rhCD14, ref.: AB383, R&D Systems-UK) | 83% |  |
| anti-human TLR4 monoclonal antibody HTA125 (eBioscience) |  | 37% |
